Columns and labels:
[1] = biological target: T1, LILRB4 on the surface of human monocytic leukemia cells (THP-1) (human, UniProt Q8NHJ6 22-448); assay: flow cytometry on THP-1 cells, FITC goat anti-mouse IgG detection
T1 construct: whole, on cells; also called THP-1细胞表面的LILRB4

[2] = biological target: LILRA4 (UniProt P59901 24-446, limits assumed); assay: ELISA, coated LILR protein 100 ng/well
[3] = biological target: LILRB2 (UniProt Q8N423 22-460, limits assumed); assay: ELISA, coated LILR protein 100 ng/well
[4] = biological target: LILRB3 (UniProt O75022 24-443, limits assumed); assay: ELISA, coated LILR protein 100 ng/well
[5] = biological target: LILRA6 (UniProt Q6PI73 24-447, limits assumed); assay: ELISA, coated LILR protein 100 ng/well
[6] = biological target: LILRA5 (UniProt A6NI73 42-268, limits assumed); assay: ELISA, coated LILR protein 100 ng/well
[7] = biological target: LILRB1 (UniProt Q8NHL6 24-461, limits assumed); assay: ELISA, coated LILR protein 100 ng/well
[8] = biological target: LILRA2 (UniProt Q8N149 24-449, limits assumed); assay: ELISA, coated LILR protein 100 ng/well
[9] = biological target: LILRA3 (UniProt Q8N6C8 24-439); assay: ELISA, coated LILR protein 100 ng/well
[10] = biological target: LILRB5 (UniProt O75023 24-458, limits assumed); assay: ELISA, coated LILR protein 100 ng/well
[11] = biological target: LILRA1 (UniProt O75019 17-461, limits assumed); assay: ELISA, coated LILR protein 100 ng/well
[12] = biological target: T1, LILRB4 on the surface of human …; assay: cell-based or functional assay
[13] = biological target: T1, LILRB4 on the surface of human …; assay: flow cytometry competition on THP-1 cells; competitor FITC-labelled ApoE at 0.4 μg/mL
[14] = biological target: T2, human LILRB4 extracellular domain (LILRB4抗原, LILRB4蛋白胞外段) (human, UniProt Q8NHJ6 22-259); assay: ELISA, coated LILRB4 100 ng/well, goat anti-mouse IgG-HRP detection
T2 construct: extracellular domain; also called 人LILRB4

Chain of LILRB3 (O75022 24-443 limits assumed): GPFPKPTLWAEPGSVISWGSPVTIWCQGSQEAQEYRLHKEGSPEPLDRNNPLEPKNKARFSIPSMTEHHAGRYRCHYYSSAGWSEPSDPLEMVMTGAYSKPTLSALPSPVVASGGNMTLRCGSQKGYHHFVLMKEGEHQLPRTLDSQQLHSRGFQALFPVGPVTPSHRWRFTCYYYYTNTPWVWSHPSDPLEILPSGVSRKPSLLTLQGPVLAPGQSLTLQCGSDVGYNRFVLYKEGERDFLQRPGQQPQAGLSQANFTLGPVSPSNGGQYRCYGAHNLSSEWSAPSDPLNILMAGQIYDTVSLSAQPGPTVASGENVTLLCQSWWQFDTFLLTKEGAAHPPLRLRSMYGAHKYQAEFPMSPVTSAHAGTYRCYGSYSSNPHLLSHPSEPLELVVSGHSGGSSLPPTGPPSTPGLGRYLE
Chain of LILRA4 (P59901 24-446 limits assumed): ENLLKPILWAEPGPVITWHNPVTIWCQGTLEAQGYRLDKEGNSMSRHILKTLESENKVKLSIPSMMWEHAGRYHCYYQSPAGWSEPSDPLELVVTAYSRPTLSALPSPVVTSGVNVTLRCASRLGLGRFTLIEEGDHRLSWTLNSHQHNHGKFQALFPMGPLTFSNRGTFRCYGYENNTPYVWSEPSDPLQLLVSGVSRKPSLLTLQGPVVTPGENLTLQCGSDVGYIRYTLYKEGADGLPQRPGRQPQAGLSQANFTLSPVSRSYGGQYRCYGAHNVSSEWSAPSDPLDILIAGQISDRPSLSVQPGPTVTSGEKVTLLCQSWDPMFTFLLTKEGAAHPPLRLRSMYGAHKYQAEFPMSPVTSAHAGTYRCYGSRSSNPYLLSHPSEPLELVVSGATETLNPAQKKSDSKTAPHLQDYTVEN
Chain of LILRA6 (Q6PI73 24-447 limits assumed): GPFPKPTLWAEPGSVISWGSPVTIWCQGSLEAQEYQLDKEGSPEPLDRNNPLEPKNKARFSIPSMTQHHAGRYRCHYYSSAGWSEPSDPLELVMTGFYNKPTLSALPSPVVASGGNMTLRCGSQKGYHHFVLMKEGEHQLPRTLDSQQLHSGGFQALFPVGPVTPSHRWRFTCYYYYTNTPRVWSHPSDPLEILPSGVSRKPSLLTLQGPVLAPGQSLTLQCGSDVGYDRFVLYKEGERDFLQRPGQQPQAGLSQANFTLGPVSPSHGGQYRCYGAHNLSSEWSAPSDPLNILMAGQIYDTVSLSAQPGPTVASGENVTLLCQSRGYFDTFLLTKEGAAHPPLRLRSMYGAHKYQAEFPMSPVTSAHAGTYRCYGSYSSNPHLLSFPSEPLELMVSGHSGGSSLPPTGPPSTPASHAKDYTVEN
Chain of LILRB2 (Q8N423 22-460 limits assumed): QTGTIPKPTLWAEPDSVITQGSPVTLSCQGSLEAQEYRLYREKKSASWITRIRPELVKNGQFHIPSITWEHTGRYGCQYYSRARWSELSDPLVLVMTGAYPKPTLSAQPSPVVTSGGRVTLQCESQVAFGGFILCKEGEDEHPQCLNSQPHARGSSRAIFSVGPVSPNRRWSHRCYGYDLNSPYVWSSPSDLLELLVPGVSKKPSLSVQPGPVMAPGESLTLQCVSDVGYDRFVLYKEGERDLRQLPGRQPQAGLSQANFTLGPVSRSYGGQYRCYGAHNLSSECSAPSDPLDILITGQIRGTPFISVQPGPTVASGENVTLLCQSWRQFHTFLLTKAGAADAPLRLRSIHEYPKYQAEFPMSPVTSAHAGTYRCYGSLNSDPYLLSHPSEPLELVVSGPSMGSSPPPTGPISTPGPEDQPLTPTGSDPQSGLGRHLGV
Chain of LILRA3 (Q8N6C8 24-439 limits assumed): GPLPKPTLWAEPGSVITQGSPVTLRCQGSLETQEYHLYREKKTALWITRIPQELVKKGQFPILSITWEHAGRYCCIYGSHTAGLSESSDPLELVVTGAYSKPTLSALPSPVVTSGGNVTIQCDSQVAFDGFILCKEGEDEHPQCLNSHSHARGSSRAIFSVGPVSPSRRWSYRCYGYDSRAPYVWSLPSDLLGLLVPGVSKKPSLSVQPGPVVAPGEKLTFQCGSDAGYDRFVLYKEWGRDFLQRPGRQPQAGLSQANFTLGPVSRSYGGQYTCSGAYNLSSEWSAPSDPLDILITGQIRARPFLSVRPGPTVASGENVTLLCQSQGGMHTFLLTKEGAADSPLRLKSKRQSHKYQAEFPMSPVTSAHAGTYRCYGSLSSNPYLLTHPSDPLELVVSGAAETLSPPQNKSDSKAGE
Chain of LILRA2 (Q8N149 24-449 limits assumed): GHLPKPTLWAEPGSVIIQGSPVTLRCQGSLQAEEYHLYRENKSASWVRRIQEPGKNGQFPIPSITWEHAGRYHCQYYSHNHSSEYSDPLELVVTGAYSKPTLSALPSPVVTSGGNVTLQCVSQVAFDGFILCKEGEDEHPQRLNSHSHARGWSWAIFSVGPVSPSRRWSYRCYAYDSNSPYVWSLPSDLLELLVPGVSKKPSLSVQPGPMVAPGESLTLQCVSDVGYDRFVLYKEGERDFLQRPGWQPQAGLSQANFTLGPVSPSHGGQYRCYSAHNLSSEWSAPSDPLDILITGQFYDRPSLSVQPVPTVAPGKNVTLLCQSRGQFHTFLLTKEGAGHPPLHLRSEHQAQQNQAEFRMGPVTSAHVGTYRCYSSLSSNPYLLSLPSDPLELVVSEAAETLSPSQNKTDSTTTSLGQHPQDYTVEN
Chain of LILRA5 (A6NI73 42-268 limits assumed): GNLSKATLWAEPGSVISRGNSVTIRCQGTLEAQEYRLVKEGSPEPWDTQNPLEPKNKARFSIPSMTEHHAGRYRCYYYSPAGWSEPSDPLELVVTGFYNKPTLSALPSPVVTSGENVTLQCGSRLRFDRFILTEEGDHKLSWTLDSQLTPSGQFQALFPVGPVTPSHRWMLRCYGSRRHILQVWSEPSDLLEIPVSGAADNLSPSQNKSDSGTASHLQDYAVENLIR
Chain of LILRB5 (O75023 24-458 limits assumed): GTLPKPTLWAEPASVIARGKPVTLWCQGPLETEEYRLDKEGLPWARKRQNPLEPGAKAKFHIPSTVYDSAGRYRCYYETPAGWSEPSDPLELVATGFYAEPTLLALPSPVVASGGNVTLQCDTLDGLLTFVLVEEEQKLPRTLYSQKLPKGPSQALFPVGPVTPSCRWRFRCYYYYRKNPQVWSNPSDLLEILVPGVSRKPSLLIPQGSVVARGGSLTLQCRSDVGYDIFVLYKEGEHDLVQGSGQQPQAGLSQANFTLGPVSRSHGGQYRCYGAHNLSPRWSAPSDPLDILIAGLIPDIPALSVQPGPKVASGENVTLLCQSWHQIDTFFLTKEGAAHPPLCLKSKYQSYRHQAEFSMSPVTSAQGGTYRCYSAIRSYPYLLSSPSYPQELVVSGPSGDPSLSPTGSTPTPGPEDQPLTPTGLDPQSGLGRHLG
Chain of LILRA1 (O75019 17-461 limits assumed): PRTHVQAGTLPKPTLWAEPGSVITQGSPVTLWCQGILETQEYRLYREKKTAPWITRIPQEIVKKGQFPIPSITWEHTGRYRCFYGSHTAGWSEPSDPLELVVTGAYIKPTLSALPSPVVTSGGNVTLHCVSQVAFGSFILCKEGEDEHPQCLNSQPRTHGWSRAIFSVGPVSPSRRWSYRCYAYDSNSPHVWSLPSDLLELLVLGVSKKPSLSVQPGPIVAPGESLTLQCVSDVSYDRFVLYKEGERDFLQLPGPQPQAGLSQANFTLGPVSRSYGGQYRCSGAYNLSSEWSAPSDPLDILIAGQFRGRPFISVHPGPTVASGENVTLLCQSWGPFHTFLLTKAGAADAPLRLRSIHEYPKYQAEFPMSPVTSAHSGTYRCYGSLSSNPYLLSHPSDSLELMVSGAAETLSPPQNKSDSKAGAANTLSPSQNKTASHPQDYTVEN
Chain of LILRB1 (Q8NHL6 24-461 limits assumed): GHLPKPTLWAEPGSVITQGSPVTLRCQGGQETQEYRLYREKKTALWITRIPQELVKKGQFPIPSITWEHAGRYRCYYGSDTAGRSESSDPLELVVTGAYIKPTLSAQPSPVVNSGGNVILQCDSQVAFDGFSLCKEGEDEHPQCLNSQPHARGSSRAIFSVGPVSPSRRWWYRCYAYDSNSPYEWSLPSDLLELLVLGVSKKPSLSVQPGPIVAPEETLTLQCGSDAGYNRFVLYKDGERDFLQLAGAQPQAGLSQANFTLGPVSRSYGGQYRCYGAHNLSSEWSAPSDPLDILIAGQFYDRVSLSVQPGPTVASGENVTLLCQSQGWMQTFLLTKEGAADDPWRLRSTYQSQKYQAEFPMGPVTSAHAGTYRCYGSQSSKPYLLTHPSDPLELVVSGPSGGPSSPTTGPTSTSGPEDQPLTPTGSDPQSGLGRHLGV

B1: ME-Ⅰ anti-LILRB4 monoclonal antibody (mouse IgG1 / Cκ) (antibody, V domains shown)
VH: EVQLEQSGAEVVKPGASVKLSCKASGYTFISYWMHWVKQRPGQGLEWIGEINPTNGRTNYNEKFKSKATLTVDKSSGTAYMQLSSLTSEDSAVYYCARWGQLGLREGYYAVDYWGQGTSVTVSS
VL: DIVLTQSPSSLSASLGDRVTISCRASQDISNYLNWYQQNPNGTVKLLIYYTSRLHSGVPSRFSGSGSGTDYSLTISNLEQEDIATYFCQQGDTLPPTFGGGTKLEIKA
notes: also called 单克隆抗体ME-Ⅰ; ME-Ⅰ抗LILRB4单克隆抗体
[1]
  EC50: 5.48 µg/mL
[2]
  binding result: no binding (tested: 50μg/mL)
[3]
  binding result: no binding (tested: 50μg/mL)
[4]
  binding result: no binding (tested: 50μg/mL)
[5]
  binding result: no binding (tested: 50μg/mL)
[6]
  binding result: no binding (tested: 50μg/mL)
[7]
  binding result: no binding (tested: 50μg/mL)
[8]
  binding result: no binding (tested: 50μg/mL)
[9]
  binding result: no binding (tested: 50μg/mL)
[10]
  binding result: no binding (tested: 50μg/mL)
[11]
  binding result: no binding (tested: 50μg/mL)
[12]
  IC50 of inhibition of ARG1 secretion by THP-1 cells in the presence of ApoE (arginase activity kit): 330 µg/mL
[13]
  IC50: 9.69 µg/mL
[14]
  EC50: 0.375 µg/mL
